Here are results for one molecule from PMC6083498, “F-CphI represents a new homing endonuclease family using the Endo VII catalytic motif”.

The target of one data set is T1, F-CphI C84S (cyanophage S-PM2, UniProt Q7Y4H4 1-142, C84S).
T1 sequence: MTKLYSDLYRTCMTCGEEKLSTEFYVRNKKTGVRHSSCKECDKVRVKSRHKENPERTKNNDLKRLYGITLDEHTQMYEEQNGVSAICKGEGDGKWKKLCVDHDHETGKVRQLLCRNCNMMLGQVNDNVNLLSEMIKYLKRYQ
The experiment in a line: EMSA; no Mg2+ added; EMSA: 10 mM Tris-HCl pH 8.0, 2% glycerol, 2 ug/ml poly-dIdC, 2 ug/ml BSA, 0.2 mM DTT, on ice 15 min, 2 nM labeled DNA; 8% native PAGE in 1X TBE. The settings on record: protein: recombinant; tags: C-terminal Myc-His; label: 5'-32P on top strand; blunt.

The next data set concerns the target T2, F-CphI N118D (cyanophage S-PM2, UniProt Q7Y4H4 1-142, N118D).
T2 sequence: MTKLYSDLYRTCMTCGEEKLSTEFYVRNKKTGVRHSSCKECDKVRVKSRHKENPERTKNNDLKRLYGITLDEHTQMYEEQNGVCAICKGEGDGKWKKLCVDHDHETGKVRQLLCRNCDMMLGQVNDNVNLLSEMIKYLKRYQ
The description is as above. The settings on record: protein: recombinant; tags: C-terminal Myc-His; label: 5'-32P on top strand; blunt.

B1: SBM4-60Top duplex (dsDNA)
DNA 1: TGGTCTGGGTATGGAAGTGATGCACGAGCGCAACGCTCACAACTTCCCTCTCGACCTTGC
DNA 2: GCAAGGTCGAGAGGGAAGTTGTGAGCGTTGCGCTCGTGCATCACTTCCATACCCAGACCA
Regarding B1, the binding result with F-CphI C84S and with F-CphI N118D was “no binding” each time.
